Columns and labels:
[1] = test system: DNA-PKcs, PARP, γH2AX and Caspase-3 signaling pathways; test: Immunoblotting of DNA damage and apoptotic pathway, tumor cells with normal P53 function; details: H1299-P53, A549-NC; Endostatin 10 μg/ml, Etoposide 10 μM 16 h, z-DEVD-fmk 10 μM; Endostatin and z-DEVD-fmk added 1 h before Etoposide
Source text: (§5) In this example, tumor cells (H1299-NC, H1299-P53, A549-NC, A549-shP53) were divided into six treatment groups.

[2] = test system: A549-shP53 tumor; test: Subcutaneous tumor growth in nude mice, A549-shP53; format: in vivo; details: A549-shP53, Day 27; compared with control group; Endostatin 20 mg/kg i.p. once a day, Etoposide 2 mg/kg i.p. once every two days
Procedure: (§1) Tumor-bearing nude mice were randomly divided into four groups with 6 to 8 animals for each group, and different drug treatments were performed. […] Tumor volume was measured every other day. 2 to 4 weeks after administration, the mice were sacrificed and the tumor tissue was removed for further use.

[3] = test system: H1299-P53 tumor; test: Subcutaneous tumor growth in nude mice, H1299-P53; format: in vivo
Procedure: as §1

[4] = test system: H1299-NC tumor; test: Subcutaneous tumor growth in nude mice, H1299-NC; format: in vivo; details: Day 19, compared with control group, Endostatin 20 mg/kg i.p. once a day, Etoposide 2 mg/kg i.p. once every two days
Procedure: as §1

[5] = test system: A549 tumor-bearing mice (normal P53 function); test: Survival of A549 tumor-bearing mice; format: in vivo; details: A549, normal P53 function (FIG. 13B); compared with control group; administration as in Example 12, stopped after 25 days
Procedure: as §1
H1299 and A549 cells were cultured in a vigorous and proliferative state, and tumor collection, grouping, and administration methods were the same as in Example 12. The administration was stopped after 25 days, and the survival of the mice was recorded daily, and the survival curve of the mice was plotted.

[6] = biological target: T1, DNA-PKcs (Homo sapiens, UniProt P78527); test: Endostatin-coupled CNBr-activated Sepharose 4B pull-down and co-immunoprecipitation; format: binding
T1 construct: incubated with A549 cell lysate; endogenous in cells; host or cells: A549 and H1299 cells (lysates)
T1 sequence (P78527 whole entry): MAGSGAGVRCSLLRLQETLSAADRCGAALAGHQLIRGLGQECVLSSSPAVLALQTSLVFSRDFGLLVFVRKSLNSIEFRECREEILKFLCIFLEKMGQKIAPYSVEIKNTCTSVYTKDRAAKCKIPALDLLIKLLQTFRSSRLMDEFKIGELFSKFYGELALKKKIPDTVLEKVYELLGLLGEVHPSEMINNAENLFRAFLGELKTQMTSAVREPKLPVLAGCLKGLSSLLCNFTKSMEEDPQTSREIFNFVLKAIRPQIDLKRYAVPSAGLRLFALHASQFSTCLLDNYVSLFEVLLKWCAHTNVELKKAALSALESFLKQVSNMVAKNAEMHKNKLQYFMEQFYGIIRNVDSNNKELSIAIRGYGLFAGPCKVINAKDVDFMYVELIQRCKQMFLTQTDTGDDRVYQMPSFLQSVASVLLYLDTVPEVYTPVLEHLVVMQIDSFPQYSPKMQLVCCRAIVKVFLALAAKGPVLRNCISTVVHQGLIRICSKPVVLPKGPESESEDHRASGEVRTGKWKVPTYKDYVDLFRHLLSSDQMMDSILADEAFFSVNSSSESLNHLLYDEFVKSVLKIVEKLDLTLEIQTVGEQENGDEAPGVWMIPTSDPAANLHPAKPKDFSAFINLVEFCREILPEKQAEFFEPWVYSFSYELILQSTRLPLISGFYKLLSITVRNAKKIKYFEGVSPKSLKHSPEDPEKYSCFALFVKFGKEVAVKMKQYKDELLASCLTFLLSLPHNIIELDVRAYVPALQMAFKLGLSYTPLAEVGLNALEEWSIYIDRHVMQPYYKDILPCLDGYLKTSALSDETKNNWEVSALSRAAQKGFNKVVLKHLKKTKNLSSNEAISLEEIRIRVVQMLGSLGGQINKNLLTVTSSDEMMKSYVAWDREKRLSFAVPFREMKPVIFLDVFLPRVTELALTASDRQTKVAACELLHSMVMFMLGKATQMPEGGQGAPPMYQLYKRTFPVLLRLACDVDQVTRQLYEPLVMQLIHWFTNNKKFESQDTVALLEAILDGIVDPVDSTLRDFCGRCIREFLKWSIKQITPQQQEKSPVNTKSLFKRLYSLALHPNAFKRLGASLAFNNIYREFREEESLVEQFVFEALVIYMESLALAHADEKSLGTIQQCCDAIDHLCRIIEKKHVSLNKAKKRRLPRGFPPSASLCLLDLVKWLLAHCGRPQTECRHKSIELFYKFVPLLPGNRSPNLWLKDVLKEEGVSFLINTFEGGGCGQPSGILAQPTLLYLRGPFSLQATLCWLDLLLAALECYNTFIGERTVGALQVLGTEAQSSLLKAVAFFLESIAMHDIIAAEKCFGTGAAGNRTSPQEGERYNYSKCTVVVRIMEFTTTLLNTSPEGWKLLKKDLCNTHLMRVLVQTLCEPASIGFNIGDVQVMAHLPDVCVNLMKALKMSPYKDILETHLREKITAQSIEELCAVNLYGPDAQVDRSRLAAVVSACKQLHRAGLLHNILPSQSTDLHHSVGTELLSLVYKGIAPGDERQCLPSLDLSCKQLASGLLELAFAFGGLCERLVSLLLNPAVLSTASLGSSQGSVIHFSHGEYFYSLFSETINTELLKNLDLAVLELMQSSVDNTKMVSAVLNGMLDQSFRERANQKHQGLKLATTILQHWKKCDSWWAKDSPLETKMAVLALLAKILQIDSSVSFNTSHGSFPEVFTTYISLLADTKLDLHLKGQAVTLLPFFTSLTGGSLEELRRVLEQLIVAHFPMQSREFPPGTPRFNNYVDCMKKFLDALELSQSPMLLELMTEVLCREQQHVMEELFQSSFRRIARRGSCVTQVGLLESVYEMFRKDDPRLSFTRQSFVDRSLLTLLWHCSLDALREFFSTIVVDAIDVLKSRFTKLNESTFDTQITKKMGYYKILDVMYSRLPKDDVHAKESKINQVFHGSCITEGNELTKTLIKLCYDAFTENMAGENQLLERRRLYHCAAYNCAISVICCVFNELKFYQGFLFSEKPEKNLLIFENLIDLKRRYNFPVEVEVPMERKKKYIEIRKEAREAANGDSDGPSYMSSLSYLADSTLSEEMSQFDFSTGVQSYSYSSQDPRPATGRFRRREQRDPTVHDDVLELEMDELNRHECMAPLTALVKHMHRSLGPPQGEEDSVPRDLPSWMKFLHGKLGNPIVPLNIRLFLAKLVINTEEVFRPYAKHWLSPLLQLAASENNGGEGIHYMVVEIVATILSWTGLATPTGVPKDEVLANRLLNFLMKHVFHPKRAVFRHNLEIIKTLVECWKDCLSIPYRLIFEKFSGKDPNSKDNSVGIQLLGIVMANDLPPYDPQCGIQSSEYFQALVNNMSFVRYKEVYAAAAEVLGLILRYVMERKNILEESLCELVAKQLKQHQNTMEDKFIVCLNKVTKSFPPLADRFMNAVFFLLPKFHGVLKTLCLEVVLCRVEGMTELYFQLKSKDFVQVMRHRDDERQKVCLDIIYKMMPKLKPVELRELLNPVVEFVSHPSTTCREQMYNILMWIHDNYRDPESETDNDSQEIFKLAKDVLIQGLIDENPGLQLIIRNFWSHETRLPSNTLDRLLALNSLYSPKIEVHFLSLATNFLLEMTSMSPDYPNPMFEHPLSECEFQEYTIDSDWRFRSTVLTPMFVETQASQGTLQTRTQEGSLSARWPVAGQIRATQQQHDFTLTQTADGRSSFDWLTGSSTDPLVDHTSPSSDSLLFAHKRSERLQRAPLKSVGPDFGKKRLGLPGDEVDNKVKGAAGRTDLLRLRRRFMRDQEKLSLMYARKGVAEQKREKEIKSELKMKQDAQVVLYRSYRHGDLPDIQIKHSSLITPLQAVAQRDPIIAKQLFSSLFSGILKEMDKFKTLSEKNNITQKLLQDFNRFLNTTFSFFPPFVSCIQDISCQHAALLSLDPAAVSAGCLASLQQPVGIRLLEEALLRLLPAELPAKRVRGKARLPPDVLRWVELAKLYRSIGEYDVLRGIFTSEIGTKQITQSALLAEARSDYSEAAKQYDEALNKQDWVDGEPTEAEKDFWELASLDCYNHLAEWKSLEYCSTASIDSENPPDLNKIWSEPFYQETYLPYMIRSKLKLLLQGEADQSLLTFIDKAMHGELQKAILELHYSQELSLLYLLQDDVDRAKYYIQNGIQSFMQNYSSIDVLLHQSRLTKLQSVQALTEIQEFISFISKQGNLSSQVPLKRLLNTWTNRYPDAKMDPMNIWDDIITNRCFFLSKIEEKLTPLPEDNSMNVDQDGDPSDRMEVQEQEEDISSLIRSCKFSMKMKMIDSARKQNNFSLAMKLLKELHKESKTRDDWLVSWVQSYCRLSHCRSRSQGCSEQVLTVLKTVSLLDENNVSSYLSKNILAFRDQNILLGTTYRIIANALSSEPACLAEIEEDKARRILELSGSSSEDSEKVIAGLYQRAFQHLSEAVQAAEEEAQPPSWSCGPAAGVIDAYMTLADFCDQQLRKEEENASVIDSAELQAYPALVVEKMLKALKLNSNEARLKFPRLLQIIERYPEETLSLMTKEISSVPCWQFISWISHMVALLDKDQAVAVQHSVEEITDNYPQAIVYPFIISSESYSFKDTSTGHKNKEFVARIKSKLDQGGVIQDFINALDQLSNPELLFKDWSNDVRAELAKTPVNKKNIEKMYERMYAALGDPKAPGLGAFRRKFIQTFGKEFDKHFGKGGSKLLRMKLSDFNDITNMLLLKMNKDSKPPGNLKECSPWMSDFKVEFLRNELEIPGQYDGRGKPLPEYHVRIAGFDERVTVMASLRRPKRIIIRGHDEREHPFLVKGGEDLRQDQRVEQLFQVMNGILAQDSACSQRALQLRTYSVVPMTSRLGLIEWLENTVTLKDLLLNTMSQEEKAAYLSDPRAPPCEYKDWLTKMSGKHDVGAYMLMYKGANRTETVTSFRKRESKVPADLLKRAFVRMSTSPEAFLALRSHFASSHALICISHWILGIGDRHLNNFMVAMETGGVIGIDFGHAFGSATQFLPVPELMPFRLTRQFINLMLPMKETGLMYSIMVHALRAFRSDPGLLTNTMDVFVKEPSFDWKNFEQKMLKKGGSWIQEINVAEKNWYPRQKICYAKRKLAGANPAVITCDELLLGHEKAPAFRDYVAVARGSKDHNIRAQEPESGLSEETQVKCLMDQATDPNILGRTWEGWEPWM
Procedure: CNBr-activated Sepharose 4B used in this example was purchased from Sigma. First, according to the instructions, endostatin and bovine serum albumin (BSA) were coupled to CNBr-activated Sepharose 4B, respectively, and incubated with A549 cell lysate. The pull down proteins were subjected to SDS-PAGE electrophoresis and stained with Coomassie blue. […] To further verify the interaction between the two, H1299 and A549 cells were incubated with Endostatin for 2 hours for endocytosis. The cell lysate was mixed with the antibody of DNA-PKcs, and then co-incubated with protein A/G beads.

[7] = test system: tumor cells with normal P53 function (H1299-P53, A549-NC); test: Cell colony formation, tumor cells with normal P53 function; format: cell-based; details: Endostatin 10 μg/ml added 1 h before Etoposide 1 μM, 16 h
Procedure: (§2) After the treatment, the cells were digested with trypsin, counted, and re-plated in a six-well plate with 1000 cells per well. The cells were cultured in a normal medium for 14 days to form cell colonies.

[8] = test system: mRNA levels of BAX, NOXA, PUMA, and P21; test: Real-time PCR of pro-apoptotic molecules, tumor cells with normal P53 function; format: cell-based; details: H1299-P53, A549-NC; Endostatin 10 μg/ml added 1 h before Etoposide 1 μM, 16 h
Procedure: (§3) After the cells were treated as described above, the total RNA of the cells was extracted, and the relative changes in mRNA levels of BAX, NOXA, PUMA, and P21 in the cells were detected by real-time PCR.

[9] = test system: A375 cells; test: CCK8 cell activity, melanoma A375; format: cell-based; details: A375 (P53 wild type); operation process as in Example 5
Procedure: (§4) First, a lentivirus kit (purchased from Shanghai Genepharma) was used to construct a P53 stably overexpressing H1299 cell line (H1299-P53) and a P53 stably knockdown A549 cell line […]. The P53 sequence targeted by the shRNA used to knock down P53 in A549 cells was 5′-[…]-3′ (SEQ ID NO: 4). Virus transfection and the construction of stable cell lines were performed according to the kit instructions. […] After treatment for 12 hours, the drug-containing medium was replaced with a normal medium and the cells were further cultured for 72 hours. Cell activity was measured according to the instructions of the CCK8 kit (Dojindo, Tokyo, Japan).
This example used two cell lines of another tumor type (melanoma), the MDA-MB-435S (P53 mutant) and A375 (P53 wild type) cell lines, to verify the regulatory function of Endostatin on the chemotherapeutic sensitivity of other types of tumor cells with different P53 status. Operation process was the same as in Example 5.

[10] = test system: γH2AX; test: Immunoblotting of γH2AX level (DSBs damage repair); format: cell-based; details: H1299 and A549 cells; Endostatin 10 μg/ml pretreatment 1 h, Etoposide 10 μM 1 hour, then fresh medium
Source text: In this example, the level of γH2AX was used to reflect the degree of DSBs damage. Tumor cells (including H1299 and A549 cells) were divided into eight treatment groups.

[11] = test system: mRNA levels of BAX, NOXA, PUMA, and P21; test: Real-time PCR of pro-apoptotic molecules, P53-deficient tumor cells; format: cell-based; details: H1299-NC, A549-shP53; Endostatin 10 μg/ml added 1 h before Etoposide 1 μM, 16 h
Procedure: as §3

[12] = test system: A549-NC tumor; test: Subcutaneous tumor growth in nude mice, A549-NC; format: in vivo
Procedure: as §1

[13] = test system: tumor cells with normal P53 function (H1299-P53 and A549-NC); test: CCK8 cell activity, tumor cells with normal P53 function; format: cell-based
Procedure: as §4
In this example, another chemical drug, Doxorubicin, was used to verify that Endostatin can enhance the sensitivity of P53-deficient tumor cells to chemotherapy. Operation process was the same as in Example 5.

[14] = test system: P53-deficient tumor cells (H1299-NC, A549-shP53); test: Cell colony formation, P53-deficient tumor cells; format: cell-based; details: Endostatin 10 μg/ml added 1 h before Etoposide 1 μM, 16 h; colonies after 14 days
Procedure: as §2

[15] = test system: DNA-PKcs, PARP, γH2AX and Caspase-3 signaling pathways; test: Immunoblotting of DNA damage and apoptotic pathway, P53-deficient tumor cells; format: cell-based; details: H1299-NC, A549-shP53; Endostatin 10 μg/ml, Etoposide 10 μM 16 h, z-DEVD-fmk 10 μM; Endostatin and z-DEVD-fmk added 1 h before Etoposide
Source text: as §5

B1: Endostatin: recombinant natural human endostatin expressed by E. coli, from Protgen, SEQ ID NO: 2 (protein)
chain: MHSHRDFQPVLHLVALNSPLSGGMRGIRGADFQCFQQARAVGLAGTFRAFLSSRLQDLYSIVRRADRAAVPIVNLKDELLFPSWEALFSGSEGPLKPGARIFSFDGKDVLRHPTWPQKSVWHGSDPNGRRLTESYCETWRTEAPSATGQASSLLGGRLLGQSAASCHHAYIVLCIENSFMTASK
modifications: The amino acid sequence of natural human endostatin
Q: Which “DNA-PKcs, PARP, γH2AX and Caspase-3 signaling pathway levels” value [1] does the source give for B1 here?
A: The value was “did not affect the above-mentioned signaling pathway levels”.

Q: And the tumor suppression rate [2]?
A: Its tumor suppression rate is 37.1%.

Q: And the tumor suppression rate ([3]; H1299-P53, Day 19, compared with control group, Endostatin 20 mg/kg i.p. once a day, Etoposide 2 mg/kg i.p. once every two days)?
A: Its tumor suppression rate is 33.8%.

Q: And the “Effect on the inhibitory effect of Etoposide on tumor growth” value ([3]; H1299-P53, Endostatin 20 mg/kg i.p. once a day and Etoposide 2 mg/kg i.p. once every two days)?
A: The value was “could not enhance the inhibitory effect of Etoposide on tumor growth”.

Q: What about the tumor suppression rate [4] of the same molecule?
A: The tumor suppression rate was 19.6%.

Q: What about the “Survival time of mice” value [5] of the same molecule?
A: The value was “could prolong the survival time of the mice to some extent”.

Q: And the “Endostatin-binding protein identified by pull-down, SDS-PAGE and mass spectrometric analysis” value ([6]; A549 cell lysate, BSA-coupled Sepharose as control)?
A: The value was “DNA-PKcs was identified as a protein interacted with Endostatin”.

Q: What about the “DNA-PKcs precipitated by Endostatin-coupled CNBr-activated Sepharose 4B (immunoblotting)” value ([6]; H1299 and A549 cell lysates) of the same molecule?
A: The value was “can be precipitated by CNBr-activated Sepharose 4B coupled with Endostatin”.

Q: And the “Co-immunoprecipitation with antibody of DNA-PKcs” value ([6]; H1299 and A549 cells incubated with Endostatin for 2 hours)?
A: Its value is “Endostatin could be co-precipitated by DNA-PKcs”.

Q: And the “Effect on inhibition of colony-forming ability by Etoposide” value [7]?
A: The value was “did not significantly enhance theinhibitory effect of Etoposide”.

Q: What about the “Effect on the pro-apoptotic effect of Etoposide (mRNA of pro-apoptotic molecules)” value [8] of the same molecule?
A: The value was “did not significantly enhance the pro-apoptotic effect of Etoposide”.

Q: And the “Effect on the inhibitory effect of Etoposide on cell activity” value [9]?
A: Its value is “did not significantly enhance the inhibitory effect of Etoposide”.

Q: What about the “Reduction of γH2AX level (repair of DSBs damage) after Etoposide” value [10] of the same molecule?
A: Its value is “delayed the reduction of γH2AX level”.

Q: What about the “Effect on up-regulation of pro-apoptotic molecules by Etoposide (mRNA)” value [11] of the same molecule?
A: Its value is “could enhance Etoposide to up-regulate pro-apoptotic molecules”.

Q: What about the tumor suppression rate ([12]; Day 27, compared with control group, Endostatin 20 mg/kg i.p. once a day, Etoposide 2 mg/kg i.p. once every two days) of the same molecule?
A: The tumor suppression rate was 40.9%.

Q: What about the “Effect on the inhibitory effect of Etoposide on tumor growth” value ([12]; Endostatin 20 mg/kg i.p. once a day and Etoposide 2 mg/kg i.p. once every two days) of the same molecule?
A: Its value is “could not enhance the inhibitory effect of Etoposide on tumor growth”.

Q: What about the “Effect on the inhibitory effect of Etoposide on cell activity” value ([13]; Endostatin 10 μg/ml pretreatment 1 h, Etoposide 0, 0.1, 1, 10 μM) of the same molecule?
A: The value was “did not significantly enhance the inhibitory effect of Etoposide”.

Q: And the “Effect on the inhibitory effect of Doxorubicin on cell activity” value ([13]; Operation process as in Example 5, Doxorubicin instead of Etoposide)?
A: Its value is “did not significantly enhance the inhibitory effect of Doxorubicin”.

Q: And the “Effect on inhibition of tumor cell colony-forming ability by Etoposide” value [14]?
A: Its value is “could enhance the inhibitory effect of Etoposide on tumor cell colony-forming ability”.

Q: What about the “DNA-PKcs, PARP, γH2AX and Caspase-3 signaling pathway levels” value [15] of the same molecule?
A: Its value is “did not affect the above-mentioned signaling pathway levels”.

Reference: patent publication US20240165140A1, “MEDICATION FOR INHIBITING DNA-PKCS” (TSINGHUA UNIVERSITY, priority 2017, published 2024)
